{
  "source": "patent US20260152536",
  "key": {"IL-12p70-L2-TM": {"molecular_target": "IL-12p70-L2-TM (UniProt P43432)", "sequence (P43432 other isoform, or with tags, fused parts or gaps)": "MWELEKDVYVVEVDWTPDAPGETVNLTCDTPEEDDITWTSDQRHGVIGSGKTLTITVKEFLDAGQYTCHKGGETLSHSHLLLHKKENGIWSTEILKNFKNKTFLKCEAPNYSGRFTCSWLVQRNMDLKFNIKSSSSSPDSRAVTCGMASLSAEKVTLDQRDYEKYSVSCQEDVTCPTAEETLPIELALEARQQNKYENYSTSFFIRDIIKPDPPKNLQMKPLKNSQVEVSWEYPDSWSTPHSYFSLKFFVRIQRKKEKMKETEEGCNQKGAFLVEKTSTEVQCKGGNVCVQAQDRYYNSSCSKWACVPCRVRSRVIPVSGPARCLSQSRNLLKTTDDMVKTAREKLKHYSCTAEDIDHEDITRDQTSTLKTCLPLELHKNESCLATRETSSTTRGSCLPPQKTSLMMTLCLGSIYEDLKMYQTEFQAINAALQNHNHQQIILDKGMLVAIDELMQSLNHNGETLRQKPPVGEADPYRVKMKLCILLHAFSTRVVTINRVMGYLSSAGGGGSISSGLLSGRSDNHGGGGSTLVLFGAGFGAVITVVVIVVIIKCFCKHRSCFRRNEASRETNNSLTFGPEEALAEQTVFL"}, "IL-12p70-L3-TM": {"molecular_target": "IL-12p70-L3-TM (UniProt P43432)", "sequence (P43432 other isoform, or with tags, fused parts or gaps)": "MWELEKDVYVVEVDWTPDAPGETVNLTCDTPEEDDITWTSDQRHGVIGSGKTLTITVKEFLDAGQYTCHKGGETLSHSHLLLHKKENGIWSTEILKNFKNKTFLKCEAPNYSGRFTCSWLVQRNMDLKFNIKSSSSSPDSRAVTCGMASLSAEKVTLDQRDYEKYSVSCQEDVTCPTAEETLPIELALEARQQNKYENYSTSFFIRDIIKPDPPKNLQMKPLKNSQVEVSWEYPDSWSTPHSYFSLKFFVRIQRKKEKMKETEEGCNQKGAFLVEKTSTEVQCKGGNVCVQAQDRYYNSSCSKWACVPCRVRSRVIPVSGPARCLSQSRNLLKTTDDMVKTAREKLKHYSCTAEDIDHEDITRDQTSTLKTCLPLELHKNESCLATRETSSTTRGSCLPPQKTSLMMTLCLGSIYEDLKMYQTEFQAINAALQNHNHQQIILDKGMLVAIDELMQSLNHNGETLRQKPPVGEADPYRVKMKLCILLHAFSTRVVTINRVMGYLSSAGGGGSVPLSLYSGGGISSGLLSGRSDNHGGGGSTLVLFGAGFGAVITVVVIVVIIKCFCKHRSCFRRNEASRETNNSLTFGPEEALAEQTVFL"}, "IL-12p70-L4-TM": {"molecular_target": "IL-12p70-L4-TM (UniProt P43432)", "sequence (P43432 other isoform, or with tags, fused parts or gaps)": "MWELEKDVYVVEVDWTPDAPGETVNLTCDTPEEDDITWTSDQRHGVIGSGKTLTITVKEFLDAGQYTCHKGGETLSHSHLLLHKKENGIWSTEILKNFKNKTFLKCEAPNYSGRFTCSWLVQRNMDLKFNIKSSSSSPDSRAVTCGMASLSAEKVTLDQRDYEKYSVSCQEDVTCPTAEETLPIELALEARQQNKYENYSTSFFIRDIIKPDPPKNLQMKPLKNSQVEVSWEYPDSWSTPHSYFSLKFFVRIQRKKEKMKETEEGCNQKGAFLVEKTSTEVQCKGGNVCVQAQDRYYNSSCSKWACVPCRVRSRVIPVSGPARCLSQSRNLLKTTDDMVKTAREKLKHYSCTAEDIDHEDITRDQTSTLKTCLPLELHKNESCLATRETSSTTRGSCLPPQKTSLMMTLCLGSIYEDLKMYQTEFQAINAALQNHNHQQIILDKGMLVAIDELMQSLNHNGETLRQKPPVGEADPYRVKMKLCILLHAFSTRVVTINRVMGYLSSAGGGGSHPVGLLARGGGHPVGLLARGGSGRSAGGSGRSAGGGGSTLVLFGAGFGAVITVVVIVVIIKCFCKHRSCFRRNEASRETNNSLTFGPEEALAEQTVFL"}, "IL-12p70-L4s-TM": {"molecular_target": "IL-12p70-L4s-TM (UniProt P43432)", "sequence (P43432 other isoform, or with tags, fused parts or gaps)": "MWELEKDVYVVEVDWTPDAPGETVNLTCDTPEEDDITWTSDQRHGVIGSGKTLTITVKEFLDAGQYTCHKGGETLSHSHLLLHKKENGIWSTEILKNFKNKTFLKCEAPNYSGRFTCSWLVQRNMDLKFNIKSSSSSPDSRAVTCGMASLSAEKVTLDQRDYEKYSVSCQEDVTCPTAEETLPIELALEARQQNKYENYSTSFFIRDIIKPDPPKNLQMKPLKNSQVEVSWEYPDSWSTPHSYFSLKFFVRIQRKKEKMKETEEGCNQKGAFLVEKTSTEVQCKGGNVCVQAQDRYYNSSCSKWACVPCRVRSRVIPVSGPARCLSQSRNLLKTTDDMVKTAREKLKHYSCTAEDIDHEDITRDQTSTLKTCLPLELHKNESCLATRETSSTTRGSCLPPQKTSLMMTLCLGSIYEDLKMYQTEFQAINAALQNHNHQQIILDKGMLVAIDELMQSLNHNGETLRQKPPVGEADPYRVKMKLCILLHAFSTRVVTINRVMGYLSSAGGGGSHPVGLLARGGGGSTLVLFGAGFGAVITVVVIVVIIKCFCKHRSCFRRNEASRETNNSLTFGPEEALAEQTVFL"}, "IL-12p70-L5-TM": {"molecular_target": "IL-12p70-L5-TM (UniProt P43432)", "sequence (P43432 other isoform, or with tags, fused parts or gaps)": "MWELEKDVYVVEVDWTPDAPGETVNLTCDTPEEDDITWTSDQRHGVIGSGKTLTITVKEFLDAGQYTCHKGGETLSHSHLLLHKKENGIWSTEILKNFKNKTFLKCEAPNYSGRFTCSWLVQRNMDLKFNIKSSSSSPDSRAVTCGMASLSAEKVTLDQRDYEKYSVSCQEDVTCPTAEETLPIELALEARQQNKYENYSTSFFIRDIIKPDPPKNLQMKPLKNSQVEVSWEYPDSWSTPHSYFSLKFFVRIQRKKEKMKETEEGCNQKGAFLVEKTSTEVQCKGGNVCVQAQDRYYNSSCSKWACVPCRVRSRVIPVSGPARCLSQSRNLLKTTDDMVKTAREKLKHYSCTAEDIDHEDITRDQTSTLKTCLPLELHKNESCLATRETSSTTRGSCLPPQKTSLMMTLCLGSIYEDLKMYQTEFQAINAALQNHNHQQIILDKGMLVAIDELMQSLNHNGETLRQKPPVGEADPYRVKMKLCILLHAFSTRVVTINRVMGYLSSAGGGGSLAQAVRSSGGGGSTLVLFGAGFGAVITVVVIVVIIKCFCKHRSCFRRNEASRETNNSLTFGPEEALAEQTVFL"}},
  "data": [
    {"substance": "activated murine MMP2 (matrix metalloprotease 2)", "values": [
      {"measurement": "release of cleaved (therefore soluble) IL-12p70 into the supernatant, ELISA", "setting": "IL-12p70-L2-TM", "value": "a time-dependent release of IL-12p70 was observed"},
      {"measurement": "release of cleaved (therefore soluble) IL-12p70 into the supernatant, ELISA", "setting": "IL-12p70-L3-TM", "value": "a time-dependent release of IL-12p70 was observed"},
      {"measurement": "release of cleaved (therefore soluble) IL-12p70 into the supernatant, ELISA", "setting": "IL-12p70-L4-TM", "value": "a time-dependent release of IL-12p70 was observed"},
      {"measurement": "release of cleaved (therefore soluble) IL-12p70 into the supernatant, ELISA", "setting": "IL-12p70-L4s-TM", "value": "a time-dependent release of IL-12p70 was observed"},
      {"measurement": "release of cleaved (therefore soluble) IL-12p70 into the supernatant, ELISA", "setting": "IL-12p70-L5-TM", "value": "a time-dependent release of IL-12p70 was observed"}
    ]}
  ]
}
